Results: patent US20050244400A1

What was measured:
[1] = target: GAA Δ 817-952 (human GAA lacking C-terminal residues 817-952) (human) (UniProt P10253); assay: cell-based or functional assay
[2] = target: GAAΔ791-952-GILTΔ1-7 (GAA truncated with the GILT tag fused at position 791) (human) (UniProt P10253); assay: cell-based or functional assay

GAA activity (nmol/hr-ml) in media of co-transfected HEK293 cells [1] [nmol/h/mL]	GAA activity (nmol/hr-ml) in media of co-transfected HEK293 cells [2] [nmol/h/mL]	Substance
14	2	SS-GAA-791-952 (human IGF-II signal sequence fused to human GAA residues 791-952, the C-terminal domain) (from UniProt P10253 791-952) (enzyme)
	1	SS-GAA-817-952 (from UniProt P10253 817-952) (enzyme)
